From patent US9890409B2, “Composition for astringin product” (INDUSTRY FOUNDATION OF CHONNAM NATIONAL UNIVERSITY, priority 2015, dated 2018)

Assay: Oxidation of polydatin to astringin (3′-hydroxylation), steady-state kinetics by HPLC
Format: biochemical
Conditions: polydatin as substrate, NADPH-generating system, 37° C., 30 minutes, 100 mM potassium phosphate buffer pH 7.4
Method: P450 BM3 50 pmol and […] of polydatin as a substrate were added to 0.25 ml of 100 mM potassium phosphate buffer (pH 7.4) to perform a typical steady-state reaction. In order to start the reaction, the NADPH-generating system (10 mM glucose 6-phosphate, 0.5 mM NADP^+ and 1 IU yeast glucose 6-phosphate-dihydrogenase per 1 ml of final concentration) was added. 20 mM polydatin solution was prepared with DMSO, and diluted with an enzyme reaction solution, thereby preparing a reaction mixture so that the final organic solvent has a concentration of 1%/(v/v) or less. The solution was reacted at 37° C. for 30 minutes, and the reaction was terminated with ethyl-acetate which is cooled by using ice with twice amount.
The reaction mixture was centrifuged, the supernatant was […]. Then, the solvent was evaporated under a nitrogen gas, and analyzed by HPLC. A sample (30 μl) was injected into Gemini C18 column (4.6 mm×150 mm, 5 μm, Phenomenex, Torrance, Calif.). […] The mobile phase flowed at a rate of 1 ml/minute and an eluent was measured by 320 nm of UV.
In order to examine whether polydatin is oxidized by CYP102A1(P450 BM3), oxidativity of polydatin was measured at a substrate concentration fixed to be 1000 μM in the P450 wild-type CYP102A1, the CYP102A1 mutant, the CYP102A1 chimera, and the mutant of CYP102A1 chimera. […]

B1: M16V3: chimera protein: heme domain of CYP102A1 Mutant#16 (R47L/F81I/F87V/E143G/L188Q/E267V) fused with reductase domain of natural variant CYP102A1.3 (protein)
chain: TIKEMPQPKTFGELKNLPLLNTDKPVQALMKIADELGEIFKFEAPGLVTRYLSSQRLIKEACDESRFDKNLSQALKFVRDFAGDGIVTSWTHEKNWKKAHNILLPSFSQQAMKGYHAMMVDIAVQLVQKWERLNADEHIEVPGDMTRLTLDTIGLCGFNYRFNSFYRDQPHPFITSMVRALDEAMNKQQRANPDDPAYDENKRQFQEDIKVMNDLVDKIIADRKASGEQSDDLLTHMLNGKDPETGEPLDDENIRYQIITFLIAGHVTTSGLLSFALYFLVKNPHVLQKAAEEAARVLVDPVPSYKQVKQLKYVGMVLNEALRLWPTAPAFSLYAKEDTVLGGEYPLEKGDELMVLIPQLHRDKTIWGDDVEEFRPERFENPSAIPQHAFKPFGNGQRACIGQQFALHEATLVLGMMLKHFDFEDHTNYELDIKETLTLKPEGFVVKAKSKKIPLGGIPSPSTEQSAKKVRKKVENAHNTPLLVLYGSNMGTAEGTARDLADIAMSKGFAPQVATLDSHAGNLPREGAVLIVTASYNGHPPDNAKQFVDWLDQASADDVKGVRYSVFGCGDKNWATTYQKVPAFIDETLAAKGAENIADRGEADASDDFEGTYEEWREHMWSDVAAYFNLDIENSEDNKSTLSLQFVDSAADMPLAKMHGAFSANVVASKELQQLGSERSTRHLEIALPKEASYQEGDHLGVIPRNYEGIVNRVTARFGLDASQQIRLEAEEEKLAHLPLGKTVSVEELLQYVELQDPVTRTQLRAMAAKTVCPPHKVELEALLEKQAYKEQVLAKRLTMLELLEKYPACEMEFSEFIALLPSISPRYYSISSSPHVDEKQASITVSVVSGEAWSGYGEYKGIASNYLANLQEGDTITCFVSTPQSGFTLPKDSETPLIMVGPGTGVAPFRGFVQARKQLKEQGQSLGEAHLYFGCRSPHEDYLYQEELENAQNEGIITLHTAFSRVPNQPKTYVQHVMERDGKKLIELLDQGAHFYICGDGSQMAPDVEATLMKSYADVYEVSEADARLWLQQLEEKGRYAKDVWAG
modifications: CYP102A1 chimeric protein M16V3 aa seq
In the case of B1, the “kcat, astringin formation” value is reported as 0.00417 ± 0.0005 s⁻¹ and the Km (read-out: Km, astringin formation) is reported as 390 ± 111 µM.
